Patent publication US20250032576A1, “CNP Therapy” (BIOMARIN PHARMACEUTICAL INC., priority 2021, published 2025)
Values joined by “and” are separate entries in the source; they are usually repeats but may differ in a detail not shown here. Identical values can stand only once. Each block holds one substance with its values, some of them ahead of it. No end group written: not given here.

Legend:
[1] = system: mouse model of Cardiofaciocutaneous syndrome using a Braf mutation (p.Q241R); settings: in vivo; cited from earlier work
[2] = system: mice deficient in Nf1 in type II collagen producing cells; settings: daily injections; cited from earlier work
[3] = target: NPR2 variant Glu727Gln (human) (UniProt P20594); assay: cell-based or functional assay
[4] = target: NPR2 variant Lys367Glu (human) (UniProt P20594); assay: cell-based or functional assay
[5] = target: NPR2 variant Arg601Ser (human) (UniProt P20594); assay: cell-based or functional assay
[6] = target: NPR2 variant Thr377Asn (human) (UniProt P20594); assay: cell-based or functional assay
[7] = target: NPR2 variant Glu389Asp (human) (UniProt P20594); assay: cell-based or functional assay
[8] = target: NPR2 variant Glu359Ala (human) (UniProt P20594); assay: cell-based or functional assay
[9] = target: NPR2 variant Ile494Ser (human) (UniProt P20594); assay: cell-based or functional assay
[10] = target: NPR2 variant Trp42Arg (human) (UniProt P20594); assay: cell-based or functional assay
[11] = target: NPR2 variant His552Arg (human) (UniProt P20594); assay: cell-based or functional assay
[12] = target: NPR2 variant Glu77Lys (human) (UniProt P20594); assay: cell-based or functional assay
[13] = target: NPR2 variant Val553Leu (human) (UniProt P20594); assay: cell-based or functional assay
[14] = target: NPR2 variant Thr297Met (human) (UniProt P20594); assay: cell-based or functional assay
[15] = target: NPR2 variant Gly917Arg (human) (UniProt P20594); assay: cell-based or functional assay
[16] = target: NPR2 variant Ala59Thr (human) (UniProt P20594); assay: cell-based or functional assay
[17] = target: NPR2 variant Ala48Ser (human) (UniProt P20594); assay: cell-based or functional assay
[18] = target: NPR2 variant Arg562Gln (human) (UniProt P20594); assay: cell-based or functional assay
[19] = target: NPR2 variant HIS508Asp (human) (UniProt P20594); assay: cell-based or functional assay
[20] = target: NPR2 variant Arg957Cys (human) (UniProt P20594); assay: cell-based or functional assay
[21] = target: NPR2 variant Leu1009Val (human) (UniProt P20594); assay: cell-based or functional assay
[22] = target: NPR2 variant Lys1006Thr (human) (UniProt P20594); assay: cell-based or functional assay
[23] = target: NPR2 variant Arg263His (human) (UniProt P20594); assay: cell-based or functional assay
[24] = target: NPR2 variant Thr907Met (human) (UniProt P20594); assay: cell-based or functional assay
[25] = target: NPR2 variant Leu956Gln (human) (UniProt P20594); assay: cell-based or functional assay
[26] = target: NPR2 variant Pro301Ser (human) (UniProt P20594); assay: cell-based or functional assay
[27] = target: NPR2 variant Gly21Arg (human) (UniProt P20594); assay: cell-based or functional assay
[28] = target: NPR2 variant Val965Asp (human) (UniProt P20594); assay: cell-based or functional assay
[29] = target: NPR2 variant Arg776Trp (human) (UniProt P20594); assay: cell-based or functional assay
[30] = target: NPR2 variant Lys480Asn (human) (UniProt P20594); assay: cell-based or functional assay
[31] = target: NPR2 variant Ser522Pro (human) (UniProt P20594); assay: cell-based or functional assay
[32] = target: NPR2 variant Lys629Arg (human) (UniProt P20594); assay: cell-based or functional assay
[33] = target: NPR2 variant Gly209Val (human) (UniProt P20594); assay: cell-based or functional assay

Substance: C-type natriuretic peptide (GLSKGCFGLKLDRIGSMSGLGC; ends and bridges not checked; cysteine pairing not given here; UniProt P23582 105-126, looked up) [CNP, small, single chain peptide having a 17-amino acid loop structure at the C-terminal end]
- body length [1]: increases in body length
- ERK phosphorylation [2]: decreased ERK phosphorylation
- short stature [2]: corrected the short stature

- average phenotype (cGMP, normalized to RedLuciferase, WT set to 1) (relative to WT = 1) [3]: 1.7
- average phenotype (cGMP, normalized to RedLuciferase, WT set to 1) (relative to WT = 1) [4]: 0.0144
- average phenotype (cGMP, normalized to RedLuciferase, WT set to 1) (relative to WT = 1) [5]: 0.0595
- average phenotype (cGMP, normalized to RedLuciferase, WT set to 1) (relative to WT = 1) [6]: 0.0106
- average phenotype (cGMP, normalized to RedLuciferase, WT set to 1) (relative to WT = 1) [7]: 0.0708
- average phenotype (cGMP, normalized to RedLuciferase, WT set to 1) (relative to WT = 1) [8]: 3
- average phenotype (cGMP, normalized to RedLuciferase, WT set to 1) (relative to WT = 1) [9]: 0.0364
- average phenotype (cGMP, normalized to RedLuciferase, WT set to 1) (relative to WT = 1) [10]: 0.0288
- average phenotype (cGMP, normalized to RedLuciferase, WT set to 1) (relative to WT = 1) [11]: 1.79
- average phenotype (cGMP, normalized to RedLuciferase, WT set to 1) (relative to WT = 1) [12]: 0.0499
- average phenotype (cGMP, normalized to RedLuciferase, WT set to 1) (relative to WT = 1) [13]: 1.52
- average phenotype (cGMP, normalized to RedLuciferase, WT set to 1) (relative to WT = 1) [14]: 0.0302
- average phenotype (cGMP, normalized to RedLuciferase, WT set to 1) (relative to WT = 1) [15]: 0.0171
- average phenotype (cGMP, normalized to RedLuciferase, WT set to 1) (relative to WT = 1) [16]: 3.74
- average phenotype (cGMP, normalized to RedLuciferase, WT set to 1) (relative to WT = 1) [17]: 0.0679
- average phenotype (cGMP, normalized to RedLuciferase, WT set to 1) (relative to WT = 1) [18]: 1.55 and 1.63
- average phenotype (cGMP, normalized to RedLuciferase, WT set to 1) (relative to WT = 1) [19]: 1.74
- average phenotype (cGMP, normalized to RedLuciferase, WT set to 1) (relative to WT = 1) [20]: 0.0295 and 0.0155
- average phenotype (cGMP, normalized to RedLuciferase, WT set to 1) (relative to WT = 1) [21]: 0.0847
- average phenotype (cGMP, normalized to RedLuciferase, WT set to 1) (relative to WT = 1) [22]: 0.0551
- average phenotype (cGMP, normalized to RedLuciferase, WT set to 1) (relative to WT = 1) [23]: 1.86
- average phenotype (cGMP, normalized to RedLuciferase, WT set to 1) (relative to WT = 1) [24]: 0.0146
- average phenotype (cGMP, normalized to RedLuciferase, WT set to 1) (relative to WT = 1) [25]: 0.0243
- average phenotype (cGMP, normalized to RedLuciferase, WT set to 1) (relative to WT = 1) [26]: 0.0848
- average phenotype (cGMP, normalized to RedLuciferase, WT set to 1) (relative to WT = 1) [27]: 2.78
- average phenotype (cGMP, normalized to RedLuciferase, WT set to 1) (relative to WT = 1) [28]: 0.0158
- average phenotype (cGMP, normalized to RedLuciferase, WT set to 1) (relative to WT = 1) [29]: 0.0131
- average phenotype (cGMP, normalized to RedLuciferase, WT set to 1) (relative to WT = 1) [30]: 1.69
- average phenotype (cGMP, normalized to RedLuciferase, WT set to 1) (relative to WT = 1) [31]: 0.0567
- average phenotype (cGMP, normalized to RedLuciferase, WT set to 1) (relative to WT = 1) [32]: 1.49
- average phenotype (cGMP, normalized to RedLuciferase, WT set to 1) (relative to WT = 1) [33]: 0.0886
Substance: C-type natriuretic peptide (CNP) (from UniProt P23582 105-126) (ligand)
